Reference: patent US20260001961A1 (ALLIGATOR BIOSCIENCE, published 2026)
Like-named read-outs stand apart in the source and are kept apart here.

Assays:
[1] = target: T1, CD40 expressed on cells (UniProt P25942 21-277); experiment: flow cytometry on B16 cells expressing CD40, anti-human IgG Fcg-PE; B16wt cells as control
T1 construct: whole, on cells; also called B16-CD40; CD40 expressing B16 cells
Procedure: (§1) Binding to respective targets expressed on cells were evaluated using flow cytometry. I brief, CHO cells modified to express 5T4, B16 cells modified to express CD40 as well as the wildtype CHO and B16 cell lines were incubated with titrated concentrations of RUBY™ bsAbs. Binding of the antibodies was detected using fluorochrome-conjugated anti-human IgG and analyzed using flow cytometry.

[2] = target: T2, 5T4 (UniProt Q13641 32-355); experiment: dual target ELISA with 5T4 and CD40 (one coated, the other biotinylated; which is not stated), streptavidin-HRP; signal needs both targets
T2 construct: also called 5T4 antigen (dual target ELISA)
T2 sequence (looked up): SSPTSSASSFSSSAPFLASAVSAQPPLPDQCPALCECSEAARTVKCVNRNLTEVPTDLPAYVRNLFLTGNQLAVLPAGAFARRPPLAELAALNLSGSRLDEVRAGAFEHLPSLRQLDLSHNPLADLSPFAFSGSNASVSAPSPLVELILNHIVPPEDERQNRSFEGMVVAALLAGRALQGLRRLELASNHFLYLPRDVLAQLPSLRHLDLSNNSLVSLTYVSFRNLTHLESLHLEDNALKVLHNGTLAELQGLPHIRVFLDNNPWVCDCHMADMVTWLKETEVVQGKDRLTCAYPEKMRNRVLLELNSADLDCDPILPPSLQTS

[3] = target: T3, CD40 (UniProt P25942 21-193); experiment: as above
T3 construct: also called biotinylated CD40; CD40 antigen

[4] = target: T4, 5T4 expressed on CHO cells (UniProt Q13641 32-420, limits assumed); experiment: flow cytometry on CHO cells expressing 5T4, anti-human IgG Fcg-PE; CHOwt cells as control
T4 construct: whole, on cells; also called CHO-5T4; 5T4 expressing CHO cells
T4 sequence (looked up): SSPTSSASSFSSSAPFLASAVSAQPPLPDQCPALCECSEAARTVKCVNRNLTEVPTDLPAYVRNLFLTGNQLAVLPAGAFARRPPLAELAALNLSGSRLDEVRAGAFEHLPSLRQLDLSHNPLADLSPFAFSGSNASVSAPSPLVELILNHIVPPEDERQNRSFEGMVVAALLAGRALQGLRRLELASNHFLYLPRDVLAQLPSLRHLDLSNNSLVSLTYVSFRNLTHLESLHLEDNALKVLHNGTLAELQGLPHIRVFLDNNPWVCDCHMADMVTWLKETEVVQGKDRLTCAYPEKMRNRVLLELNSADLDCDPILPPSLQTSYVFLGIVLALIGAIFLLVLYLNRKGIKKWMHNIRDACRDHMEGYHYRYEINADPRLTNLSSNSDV
Procedure: as §1

[5] = target: T1, CD40 expressed on cells; experiment: flow cytometry on B16 cells expressing CD40, anti-human IgG Fcg-PE; B16wt cells as control; remark: listed apart in the source
Procedure: as §1

[6] = target: T4, 5T4 expressed on CHO cells; experiment: flow cytometry on CHO cells expressing 5T4, anti-human IgG Fcg-PE; CHOwt cells as control; remark: listed apart in the source
Procedure: as §1

[7] = target: T3, CD40; experiment: dual ELISA: CD40 coated, bsAb titrated, biotinylated EpCAM + streptavidin-HRP; signal needs both targets
Procedure: (§2) Dual ELISA Plates were coated with 0.5 μg/mL CD40 in PBS over night at 4° C. After washing in PBS/0.05% Tween 20 (PBST), the plates were blocked with PBS/2% BSA for at least 30 minutes at room temperature before being washed again. Samples serially diluted in PBS/0.5% BSA were then added and allowed to bind for at least 1 hour at room temperature. […] Dual complexed bsAb with CD40 and EpCAM were detected with HRP-labelled streptavidin. SuperSignal Pico Luminescent was used as substrate and luminescence signals were measured using Fluostar Optima.

[8] = target: T3, CD40; experiment: as above; remark: listed apart in the source
Procedure: as §2

T1 sequence (P25942 21-277 limits assumed): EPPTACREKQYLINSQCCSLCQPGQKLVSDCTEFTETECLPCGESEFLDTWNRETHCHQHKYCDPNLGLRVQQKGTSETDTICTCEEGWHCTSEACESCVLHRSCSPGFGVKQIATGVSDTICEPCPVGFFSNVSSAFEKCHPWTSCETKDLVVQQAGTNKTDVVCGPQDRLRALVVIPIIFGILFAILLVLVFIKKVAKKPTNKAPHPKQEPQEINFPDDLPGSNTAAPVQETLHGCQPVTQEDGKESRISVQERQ
T3 sequence (P25942 21-193 limits assumed): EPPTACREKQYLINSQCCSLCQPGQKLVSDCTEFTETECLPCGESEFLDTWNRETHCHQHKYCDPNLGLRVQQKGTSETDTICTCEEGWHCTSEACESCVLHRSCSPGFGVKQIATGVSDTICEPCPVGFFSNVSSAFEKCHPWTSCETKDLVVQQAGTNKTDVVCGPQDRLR

B1: AC_05330 (bispecific antibody, human IgG1, lambda, L234A L235A)
heavy: not shown
light: not shown
chain: EVQLLESGGGLVQPGGSLRLSCAASGFTFSSYAMSWVREAPGKGLEWVSAISGSGGSTYYADSVKGRFTISRDNSKNTLYLQMNSLRAEDTAVYYCARYYGGYYSAWMDYWGQGTLVTVSSASTKGPSVFPLAPSSKSTSGGTAALGCLVKDYFPEPVTVSWNSGALTSGVHTFPAVLQSSGLYSLSSVVEVPSSSLGTQTYICNVNHKPSNTKVDKKVEPKSC
notes: RUBY format; H1 (role heavy) = IgG heavy chain-linker-Fab light chain, L1 (role light) = IgG light chain, H2 (role chain) = Fab heavy chain; also called parental bsAb AC_05330; CD40x5T4
EC50 (read off the curve) [1]: ~0.8 nM | EC50 (read off the curve) [2]: ~0.8 nM | EC50 (read off the curve) [3]: ~0.8 nM | EC50 (read off the curve) [4]: ~30 nM

B2: AC_05377 (bispecific antibody)
heavy 1: not shown
light: DIQMTQSPSSLSASVGDRVTITCRASQSISSYLNWYQEKPGKAPKLLIYAASSLQSGVPSRFSGSGSGTDFTLTISSLQPEDFATYYCQQYGRNPPTFGQGTKLEIKRTVAAPSVFIFPPSDEQLKSGTASVVCYLNNFYPREAKVQWKVDNALQSGNSQESVTEQDSKDSTYSLWSTLTLSKADYEKHKVYACEVTHQGLSSPVTKSFNRGEC
heavy 2: EVQLLESGGGLVQPGGSLRLSCAASGFTFSSYAMSWVREAPGKGLEWVSAISGSGGSAYYADSVKGRFTISRDNSKNTLYLQMNSLRAEDTAVYYCARYYGGYYSAWMDYWGQGTLVTVSSASTKGPSVFPLAPSSKSTSGGTAALGCLVKDYFPEPVTVSWNSGALTSGVHTFPAVLQSSGLYSLSSVVEVPSSSLGTQTYICNVNHKPSNTKVDKKVEPKSC
notes: AC_05302 with the mutation in the VH of chain H2; also called T65A mutant of AC_05302; copies: 2 + 2 + 2
EC50 (read off the curve) [5]: ~1 nM

B3: AC_05373 (bispecific antibody, human IgG1, lambda, L234A L235A)
heavy 1: not shown
light: not shown
heavy 2: EVQLLESGGGLVQPGGSLRLSCAASGFTFSSYAMSWVREAPGKGLEWVSAISGSGGSEYYADSVKGRFTISRDNSKNTLYLQMNSLRAEDTAVYYCARYYGGYYSAWMDYWGQGTLVTVSSASTKGPSVFPLAPSSKSTSGGTAALGCLVKDYFPEPVTVSWNSGALTSGVHTFPAVLQSSGLYSLSSVVEVPSSSLGTQTYICNVNHKPSNTKVDKKVEPKSC
notes: AC_05330 with the mutation in the VH of chain H2; also called T65E mutant of AC_05330; copies: 2 + 2 + 2
EC50 (read off the curve) [1]: ~0.6 nM | EC50 (read off the curve) [2]: ~0.7 nM | EC50 (read off the curve) [3]: ~0.7 nM | EC50 (read off the curve) [4]: ~30 nM

B4: AC_05378 (bispecific antibody)
heavy 1: not shown
light: DIQMTQSPSSLSASVGDRVTITCRASQSISSYLNWYQEKPGKAPKLLIYAASSLQSGVPSRFSGSGSGTDFTLTISSLQPEDFATYYCQQYGRNPPTFGQGTKLEIKRTVAAPSVFIFPPSDEQLKSGTASVVCYLNNFYPREAKVQWKVDNALQSGNSQESVTEQDSKDSTYSLWSTLTLSKADYEKHKVYACEVTHQGLSSPVTKSFNRGEC
heavy 2: EVQLLESGGGLVQPGGSLRLSCAASGFTFSSYAMSWVREAPGKGLEWVSAISGSGGSIYYADSVKGRFTISRDNSKNTLYLQMNSLRAEDTAVYYCARYYGGYYSAWMDYWGQGTLVTVSSASTKGPSVFPLAPSSKSTSGGTAALGCLVKDYFPEPVTVSWNSGALTSGVHTFPAVLQSSGLYSLSSVVEVPSSSLGTQTYICNVNHKPSNTKVDKKVEPKSC
notes: AC_05302 with the mutation in the VH of chain H2; also called T65I mutant of AC_05302; copies: 2 + 2 + 2
EC50 (read off the curve) [5]: ~1 nM

B5: AC_05370 (bispecific antibody, human IgG1, kappa, L234A L235A)
heavy 1: not shown
light: DIQMTQSPSSLSASVGDRVTITCRASQSISSYLNWYQEKPGKAPKLLIYAASSLQSGVPSRFSGSGSGTDFTLTISSLQPEDFATYYCQQTYGYLHTFGQGTKLEIKRTVAAPSVFIFPPSDEQLKSGTASVVCYLNNFYPREAKVQWKVDNALQSGNSQESVTEQDSKDSTYSLWSTLTLSKADYEKHKVYACEVTHQGLSSPVTKSFNRGEC
heavy 2: EVQLLESGGGLVQPGGSLRLSCAASGFTFSSYAMSWVREAPGKGLEWVSGIGSYGGGEYYADSVKGRFTISRDNSKNTLYLQMNSLRAEDTAVYYCARYVNFGMDYWGQGTLVTVSSASTKGPSVFPLAPSSKSTSGGTAALGCLVKDYFPEPVTVSWNSGALTSGVHTFPAVLQSSGLYSLSSVVEVPSSSLGTQTYICNVNHKPSNTKVDKKVEPKSC
notes: AC_05332 with the mutation in the VH of chain H2; also called T65E mutant of AC_05332; copies: 2 + 2 + 2
EC50 (read off the curve) [6]: ~9 nM

B6: 4114 (bispecific antibody)
heavy 1: not shown
heavy 2: EVQLLEQSGAELVRPGTSVKISCKASGYAFTNYWLGWVKERPGHGLEWIGDIFPGSGNIHYNEKFKGKATLTADKSSSTAYMQLSSLTFEDSAVYFCARLRNWDEPMDYWGQGTTVTVSSASTKGPSVFPLAPSSKSTSGGTAALGCLVKDYFPEPVTVSWNSGALTSGVHTFPAVLQSSGLYSLSSVVEVPSSSLGTQTYICNVNHKPSNTKVDKKVEPKSC
light: DIQMTQSPSSLSASVGDRVTITCRASQSISSYLNWYQEKPGKAPKLLIYAASSLQSGVPSRFSGSGSGTDFTLTISSLQPEDFATYYCQQYGRNPPTFGQGTKLEIKRTVAAPSVFIFPPSDEQLKSGTASVVCYLNNFYPREAKVQWKVDNALQSGNSQESVTEQDSKDSTYSLWSTLTLSKADYEKHKVYACEVTHQGLSSPVTKSFNRGEC
notes: also called single mutant I126Q of AC_05293; copies: 2 + 2 + 2
EC50 (read off the curve) [7]: ~0.1 µg/mL

B7: AM_4121 (bispecific antibody)
heavy 1: not shown
heavy 2: EVQLLEQSGAELVRPGTSVKISCKASGYAFTNYWLGWVKERPGHGLEWIGDIFPGSGNIHYNEKFKGKATLTADKSSSTAYMQLSSLTFEDSAVYFCARLRNWDEPMDYWGQGTTVTVSSASTKGPSVFPLAPSSKSTSGGTAALGCLVKDYFPEPVTVSWNSGALTSGVHTFPAVLQSSGLYSLSSVVEVPSSSLGTQTYICNVNHKPSNTKVDKKVEPKSC
light: DIQMTQSPSSLSASVGDRVTITCRASQSISSYLNWYQEKPGKAPKLLIYAASSLQSGVPSRFSGSGSGTDFTLTISSLQPEDFATYYCQQYGRNPPTFGQGTKLEIKRTVAAPSVFIFPPSDEQLKSGTASVVCYLNNFYPREAKVQWKVDNALQSGNSQESVTEQDSKDSTYSLWSTLTLSKADYEKHKVYACEVTHQGLSSPVTKSFNRGEC
notes: also called single mutant A111W of AC_05293; copies: 2 + 2 + 2
EC50 (read off the curve) [8]: ~0.1 µg/mL

B8: AM_4120 (bispecific antibody)
heavy 1: not shown
heavy 2: EVQLLEQSGAELVRPGTSVKISCKASGYAFTNYWLGWVKERPGHGLEWIGDIFPGSGNIHYNEKFKGKATLTADKSSSTAYMQLSSLTFEDSAVYFCARLRNWDEPMDYWGQGTTVTVSSASTKGPSVFPLAPSSKSTSGGTAALGCLVKDYFPEPVTVSWNSGALTSGVHTFPAVLQSSGLYSLSSVVEVPSSSLGTQTYICNVNHKPSNTKVDKKVEPKSC
light: DIQMTQSPSSLSASVGDRVTITCRASQSISSYLNWYQEKPGKAPKLLIYAASSLQSGVPSRFSGSGSGTDFTLTISSLQPEDFATYYCQQYGRNPPTFGQGTKLEIKRTVAAPSVFIFPPSDEQLKSGTASVVCYLNNFYPREAKVQWKVDNALQSGNSQESVTEQDSKDSTYSLWSTLTLSKADYEKHKVYACEVTHQGLSSPVTKSFNRGEC
notes: also called single mutant A111V of AC_05293; copies: 2 + 2 + 2
EC50 (read off the curve) [8]: ~0.1 µg/mL

B9: AM_4119 (bispecific antibody)
heavy 1: not shown
heavy 2: EVQLLEQSGAELVRPGTSVKISCKASGYAFTNYWLGWVKERPGHGLEWIGDIFPGSGNIHYNEKFKGKATLTADKSSSTAYMQLSSLTFEDSAVYFCARLRNWDEPMDYWGQGTTVTVSSASTKGPSVFPLAPSSKSTSGGTAALGCLVKDYFPEPVTVSWNSGALTSGVHTFPAVLQSSGLYSLSSVVEVPSSSLGTQTYICNVNHKPSNTKVDKKVEPKSC
light: DIQMTQSPSSLSASVGDRVTITCRASQSISSYLNWYQEKPGKAPKLLIYAASSLQSGVPSRFSGSGSGTDFTLTISSLQPEDFATYYCQQYGRNPPTFGQGTKLEIKRTVAAPSVFIFPPSDEQLKSGTASVVCYLNNFYPREAKVQWKVDNALQSGNSQESVTEQDSKDSTYSLWSTLTLSKADYEKHKVYACEVTHQGLSSPVTKSFNRGEC
notes: also called single mutant A111T of AC_05293; copies: 2 + 2 + 2
EC50 (read off the curve) [8]: ~0.1 µg/mL

B10: 4112 (bispecific antibody)
heavy 1: not shown
heavy 2: EVQLLEQSGAELVRPGTSVKISCKASGYAFTNYWLGWVKERPGHGLEWIGDIFPGSGNIHYNEKFKGKATLTADKSSSTAYMQLSSLTFEDSAVYFCARLRNWDEPMDYWGQGTTVTVSSASTKGPSVFPLAPSSKSTSGGTAALGCLVKDYFPEPVTVSWNSGALTSGVHTFPAVLQSSGLYSLSSVVEVPSSSLGTQTYICNVNHKPSNTKVDKKVEPKSC
light: DIQMTQSPSSLSASVGDRVTITCRASQSISSYLNWYQEKPGKAPKLLIYAASSLQSGVPSRFSGSGSGTDFTLTISSLQPEDFATYYCQQYGRNPPTFGQGTKLEIKRTVAAPSVFIFPPSDEQLKSGTASVVCYLNNFYPREAKVQWKVDNALQSGNSQESVTEQDSKDSTYSLWSTLTLSKADYEKHKVYACEVTHQGLSSPVTKSFNRGEC
notes: also called single mutant I126N of AC_05293; copies: 2 + 2 + 2
EC50 (read off the curve) [7]: ~0.1 µg/mL
